Reference: patent EP4454706A1 (Universität Stuttgart, dated 2024)
Where two headings read alike, the source gives them in different places.

How the values were obtained:
[1] = biological target: T1, EGFR-moIgG2a-Fc fusion protein comprising the extracellular domain (aa 25 - 645) of human EGFR (human); test: competition ELISA, coated EGFR-moIgG2a-Fc; 1 nM IgG against 200 nM Fab-His
T1 construct: also called EGFR wt

[2] = biological target: T2, human EGFR (aa 1 - 1,210), on cells (human, UniProt P00533 25-1210); test: flow cytometry, A431 cells
T2 construct: also called EGFR wt; NIH-3T3 + EGFR wt

[3] = biological target: T2, human EGFR (aa 1 - 1,210), on cells; test: flow cytometry, FaDu cells
[4] = biological target: T2, human EGFR (aa 1 - 1,210), on cells; test: flow cytometry, DiFi cells
[5] = biological target: T2, human EGFR (aa 1 - 1,210), on cells; test: flow cytometry, LIM1215 cells
[6] = biological target: T3, EGFR-moIgG2a-Fc F436A (human); test: ELISA, coated mutant EGFR-moIgG2a-Fc
T3 construct: see m31; also called EGFR F436A

[7] = biological target: T4, EGFR-moIgG2a-Fc F436A/I462A (human); test: ELISA, coated mutant EGFR-moIgG2a-Fc
T4 construct: see m31; also called double mutant F436A/I462A

[8] = biological target: T5, EGFR-moIgG2a-Fc I462A (human); test: ELISA, coated mutant EGFR-moIgG2a-Fc
T5 construct: see m31; also called EGFR I462A

[9] = biological target: T6, EGFR-moIgG2a-Fc G434A (human); test: ELISA, coated mutant EGFR-moIgG2a-Fc
T6 construct: also called EGFR G434A

[10] = biological target: T7, EGFR-moIgG2a-Fc F381A/H383A (human); test: ELISA, coated mutant EGFR-moIgG2a-Fc
T7 construct: also called F381/H383

[11] = biological target: T8, EGFR-moIgG2a-Fc Q435P (human); test: ELISA, coated mutant EGFR-moIgG2a-Fc
T8 construct: see m31; also called EGFR Q435P

[12] = biological target: T9, EGFR-His fusion protein comprising the extracellular domain of murine EGFR (aa 25 - 647) (murine, UniProt Q01279 25-647); test: ELISA, coated murine EGFR-His, 10 nM IgG
T9 construct: Bought protein; also called mouse EGFR; Sino Biological 51091-M08H

[13] = biological target: T2, human EGFR (aa 1 - 1,210), on cells; test: cell-based or functional assay
[14] = biological target: T2, human EGFR (aa 1 - 1,210), on cells; test: flow cytometry, FaDu cells; remark: listed apart in the source
[15] = biological target: T10, CD3 on Jurkat cells (human, UniProt P07766 23-207); test: flow cytometry, Jurkat cells
T10 construct: whole, on cells; also called CD3-expressing Jurkat

[16] = biological target: T2, human EGFR (aa 1 - 1,210), on cells; test: flow cytometry, LIM1215 cells; remark: listed apart in the source
[17] = biological target: T2, human EGFR (aa 1 - 1,210), on cells; test: flow cytometry, SW620 cells
[18] = biological target: T2, human EGFR (aa 1 - 1,210), on cells; test: cell-based or functional assay; remark: listed apart in the source
[19] = biological target: T2, human EGFR (aa 1 - 1,210), on cells; test: flow cytometry, FaDu cells; remark: listed apart in the source
[20] = biological target: T2, human EGFR (aa 1 - 1,210), on cells; test: flow cytometry, HCT-116 cells
[21] = biological target: T9, EGFR-His fusion protein comprising the …; test: ELISA, coated murine EGFR-His
[22] = biological target: T11, EGFR-moIgG2a-Fc K489E (human); test: ELISA, coated mutant EGFR
T11 construct: See m39

[23] = biological target: T1, EGFR-moIgG2a-Fc fusion protein …; test: ELISA, coated EGFR-moIgG2a-Fc
[24] = biological target: EGFR-moIgG2a-Fc S484A (human); test: ELISA, coated mutant EGFR-moIgG2a-Fc
[25] = biological target: EGFR-moIgG2a-Fc K487A (human); test: ELISA, coated mutant EGFR-moIgG2a-Fc

EC50 [2] [pM] | EC50 [3] [pM] | EC50 [4] [pM] | EC50 [5] [pM] | binding result [6] | binding result [7] | binding result [8] | binding result [9] | binding result [11] | binding result [21] | binding result [23] | Binder | also measured
– | – | – | – | binds | binds | binds | binds | binds | no binding (tested: 10 nM) | binds | Panitumumab (antibody, human IgG1, kappa, V domains shown, also called IgG Panitumumab) VH: QVQLQESGPGLVKPSETLSLTCTVSGGSVSSGDYYWTWIRQSPGKGLEWIGHIYYSGNTNYNPSLKSRLTISIDTSKTQFSLKLSSVTAADTAIYYCVRDRVTGAFDIWGQGTMVTVSS VL: DIQMTQSPSSLSASVGDRVTITCQASQDISNYLNWYQQKPGKAPKLLIYDASNLETGVPSRFSGSGSGTDFTFTISSLQPEDIATYFCQHFDHLPLAFGGGTKVEIKR | binding result [22]: binds
1680 | 340 | 950 | 120 | binds | binds | binds | binds | binds | no binding (tested: 10 nM) | binds | Matuzumab (antibody, human IgG1, kappa, V domains shown, also called IgG Matuzumab) VH: QVQLVQSGAEVKKPGASVKVSCKASGYTFTSHWMHWVRQAPGQGLEWIGEFNPSNGRTNYNEKFKSKATMTVDTSTNTAYMELSSLRSEDTAVYYCASRDYDYDGRYFDYWGQGTLVTVSS VL: DIQMTQSPSSLSASVGDRVTITCSASSSVTYMYWYQQKPGKAPKLLIYDTSNLASGVPSRFSGSGSGTDYTFTISSLQPEDIATYYCQQWSSHIFTFGQGTKVEIKR | binding result [24]: no binding; binding result [25]: no binding

The next lines start with the binder.

Binder | EC50 [2] [pM] | EC50 [3] [pM] | EC50 [4] [pM] | EC50 [5] [pM] | binding result [6] | binding result [7] | binding result [8] | binding result [9] | binding result [11] | binding result [21] | binding result [23] | also measured
IgG GC1118 (antibody, V domains shown, also called GC118) VH: EVQLVESGGGVVQPGGSLRLSCAASGFTFSDYDMSWIRQAPGKGLEWVSGILGGSERSYYRDSVKGRFTISRDNSRKTLYLQMNSLRAEDTAVYYCARHGSPGYTLYAWDYWGQGTTVTVSS VL: DIVMTQTPLSLPVTPGEPASISCRSNQDLTHSNGNTYLEWYLQKPGQSPRLLIYKVSNRFSGVPDRFSGSGAGTDFTLRISRVEAEDVGVYYCMQGTHWPWTFGQGTKVDIKR | 1670 | 470 | 1100 | 150 | binds | binds | binds | binds | binds | – | – | binding result [1]: binds; binding result [10]: no binding; binding result [12]: binds
Fab-eIg YU250-H10xhuU3 (bispecific antibody, also called bispecific trivalent EGFRxCD3 Fab-eIg YU250-H10) light: QSVLTQPPSVSGAPGQRVTISCSGGSSNVGRNGVNWFQHLPEKAPKLLIYYDAFLSSGVSDRFSGSKSGTSASLAIRGLQSDDEADYYCAAWDDSLYSWVFGGGTNLTVLGQPKAAPSVTLFPPSSEELQANKATLVCLISDFYPGAVTVAWKADSSPVKAGVETTTPSKQSNNKYAASSYLSLTPEQWKSHRSYSCQVTHEGSTVEKTVAPTECS chain 1: not shown chain 2: not shown chain 3: not shown | – | – | – | – | – | – | – | – | – | – | – | IC50 for cytotoxicity, FaDu + PBMCs (E:T 10:1) [13]: 4.8 pM; IC50 for cytotoxicity, HCT-116 + PBMCs (E:T 10:1) [13]: 3 pM; IC50 for cytotoxicity, SW620 + PBMCs (E:T 10:1) [13]: 4.9 pM; EC50 [14]: 320 pM; EC50 [15]: > 10000 pM; EC50 [16]: 270 pM; EC50 [17]: 30 pM; IC50 for cytotoxicity, FaDu + PBMCs (E:T 10:1) [18]: 7 pM; IC50 for cytotoxicity, LIM1215 + PBMCs (E:T 10:1) [18]: 3 pM; EC50 [19]: 760 pM; EC50 [20]: 130 pM
